“And” between values parts separate entries of the source, which are not always exact repeats. Identical values can stand only once.
Columns and labels:
A2aR W246Y = details: cited from earlier work
[1] = target: A2aR suspended in bovine striatal membranes; design: method as in earlier work; details: literature value; cited from earlier work
[2] = design: method as in doi:10.1016/0584-8539(95)01421-P; details: cited from earlier work
[3] = Fluorescent ligand binding measured by flow cytometry; design: species or system Saccharomyces cerevisiae; details: for fluorescent ligand binding signal: Supplementary Figure 4 source data, replicates, listed as pYC A2a10H (Q89A)
[4] = Whole-cell saturation radioligand binding; design: species or system Saccharomyces cerevisiae; details: for CPM: raw replicate counts, empty vector not subtracted
[5] = FACS-based screen of A2aR library with deep sequencing (BRIDGE): variant enrichment; format: cell-based, Saccharomyces cerevisiae

CCNC(=O)[C@H]1O[C@@H](n2cnc3c(N)nc(NCCc4ccc(CCC(=O)O)cc4)nc32)[C@H](O)[C@@H]1O [CGS21680]
potency of the agonist (A2aR W246Y): comparable to that of the wild-type receptor

CCNC(=O)[C@H]1O[C@@H](n2cnc3c(N)nc(NCCc4ccc(CCC(=O)NCCNC(=S)Nc5ccc6c(c5)C(=O)OC65c6ccc(O)cc6Oc6cc(O)ccc65)cc4)nc32)[C@H](O)[C@@H]1O [FITC-APEC]
Kd [1]: 57 nM

O=C1OC2(c3ccc(O)cc3Oc3cc(O)ccc32)c2ccccc21 [Fluorescein]
pKa of the dianion [2]: 6.43

B1: TAWLH: single-residue mutant Q89A of A2aR, positive control reported to exhibit improved binding affinity to NECA (protein, UniProt P29274 1-412, looked up, variant Q89A)
Adenosine receptor A2a: MPIMGSSVYITVELAIAVLAILGNVLVCWAVWLNSNLQNVTNYFVVSLAAADIAVGVLAIPFAITISTGFCAACHGCLFIACFVLVLTASSIFSLLAIAIDRYIAIRIPLRYNGLVTGTRAKGIIAICWVLSFAIGLTPMLGWNNCGQPKEGKNHSQGCGEGQVACLFEDVVPMNYMVYFNFFACVLVPLLLMLGVYLRIFLAARRQLKQMESQPLPGERARSTLQKEVHAAKSLAIIVGLFALCWLPLHIINCFTFFCPDCSHAPLWLMYLAIVLSHTNSVVNPFIYAYRIREFRQTFRKIIRSHVLRQQEPFKAAGTSARVLAAHGSDGEQVSLRLNGHPPGVWANGSAPHPERRPNGYALGLVSGGSAQESQGNTGLPDVELLSHELKGVCPEPPGLDDPLAQDGAGVS
modifications: decahistidine tag
fluorescent ligand binding, result in words ([3]; FITC-APEC, yeast cells): improved binding affinity | fluorescent ligand binding signal ([3]; [FITC-APEC] 10 nM): 102 and 104 and 101 | fluorescent ligand binding signal ([3]; [FITC-APEC] 100 nM): 132 and 133 and 147 | fluorescent ligand binding signal ([3]; [FITC-APEC] 1000 nM): 298 and 308 and 303 | fluorescent ligand binding signal ([3]; [FITC-APEC] 10000 nM): 368 and 357 and 377 | fluorescent ligand binding signal ([3]; [FITC-APEC] 50000 nM): 430 and 460 and 408 | Kd ([4]; 3H-NECA, whole yeast cells, pH 5.8, mean ± SD of three biological replicates, read-out: equilibrium dissociation constant (Kd)): 9.9 ± 0.4 nM | CPM ([4]; [3H-NECA] 1.6 nM): 224 CPM and 211 CPM and 240 CPM | CPM ([4]; [3H-NECA] 3.1 nM): 450 CPM and 470 CPM and 429 CPM | CPM ([4]; [3H-NECA] 6.3 nM): 719 CPM and 702 CPM and 640 CPM | CPM ([4]; [3H-NECA] 12.5 nM): 1084 CPM and 978 CPM and 892 CPM | CPM ([4]; [3H-NECA] 25 nM): 1238 CPM and 1266 CPM and 1270 CPM | CPM ([4]; [3H-NECA] 50 nM): 1460 CPM and 1383 CPM and 1357 CPM | CPM ([4]; [3H-NECA] 100 nM): 1834 CPM and 1782 CPM and 1547 CPM | CPM ([4]; [3H-NECA] 200 nM): 2245 CPM and 2197 CPM and 2158 CPM | CPM ([4]; [3H-NECA] 400 nM): 2884 CPM and 2262 CPM and 2852 CPM | fold greater 3H-NECA binding affinity than wild-type receptor ([4]; ratio of Kd to wild-type): fourfold | Enrichment rate ([5]; naive to PS4 library (PS4/naive), high-stringency gating, 10 µM FITC-APEC): 149 | Fold increase in enrichment rate over WT ([5]; naive to PS4 library, WT rate 0.30): 497 fold | Enrichment rate ([5]; naive to PS4 population): 149 fold
